{"source": "patent US20110311517A1", "about": "“Antibodies and methods for treating estrogen receptor-associated diseases” (SHENOGEN PHARMA GROUP, LTD., priority 2009, published 2011)", "molecules": {"B1": {"name": "ScFv3: fully human anti-ERα36 single chain antibody, SEQ ID NO: 7 (protein)", "scFv": "QSVLTQPASVSGSPGQSITISCTGTSSDVGGYNYVSWYQQHPGKAPKLMIYDVSKRPSGVSNRFSGSKSGNTASLTISGLQAEDEADYYCSSYTSSSTLVFGGGTKLTVLGSGGSTITSYNVYYTKLSSSGTEVQLVQSGGGVAQPGRSLRLSCAASGITFNSYGMHWVRQAPGKGLEWVAVMPYDGSNEYYADSVKGRFTISRDNSKNTLYLQMNSLRAEDTAVYYCAKGSGMVQLWADAFDVWGQGTMVTVSSAS", "modifications": "scFv3"}, "B2": {"name": "ScFv2: fully human anti-ERα36 single chain antibody, SEQ ID NO: 5 (protein)", "scFv": "QSALTQPASVSGSPGQSITISCTGTSSDVGGYNYVSWYQQHPGKAPKLMIYDVSKRPSGVSNRFSGSKSGNTASLTISGLQAEDEADYYCSSYTSSSTLVFGGGTKLTVLGSGGSTITSYNVYYTKLSSSGTQVQLLESGAEVKKPGASVKVSCKASGYTFTAYYMHWVRQAPGQGLEWMAMIDPSGSITSYAQKFQGRVTMSRDTSTSTLYMELSSLRSDDTAVYYCARDLKEGFSVPGAFDIWGQGTMVTVSSAS", "modifications": "scFv2"}, "B3": {"name": "ScFv6: fully human anti-ERα36 single chain antibody, SEQ ID NO: 13 (protein)", "scFv": "EIVMTQSPGTLSLSPGERATLSCRASQSVDSNFLAWYQQRPGQAPRLLIYGVSSSATGIPDRFSGSGSGTDFTLSIDRLEPEDFAVYYCQQYGSSPTFGGGTKLEIKRSGGSTITSYNVYYTKLSSSGTQVQLQESGGGLVQPGRSLRLSCAASGFTFDDYAMHWVRQAPGKGLEWVSGISWNSGSIGYADSVKGRFTISRDNAKNSLYLQMNSLRAEDTAVYYCARSGDYGAFDIWGQGTMVTVSSAS", "modifications": "scFv6"}}, "key": {"ERα36": {"biological_target": "T1, ERα36 (Homo sapiens, UniProt P03372)", "T1 construct": "made in house; host or cells: chemical synthesis (no expression host)", "T1 sequence (P03372 284-310 isoform P03372-4 limits assumed)": "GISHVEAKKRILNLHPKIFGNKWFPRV", "experiment": "ELISA of re-natured ScFv binding to ERα36", "method": "Streptavidin-coated 96-well plates were washed twice with PBS. Biotinylated ERα36 (final concentration of 20 μg/ml) was added into each testing well. The plates were incubated for 2 h at room temperature and washed three times with PBST. Re-natured ScFv samples (100 μl, S14A1r1, S24A2r2, S33A2r1, S41A3r3, S53A1r1, S66A1r1 and S72A2r1) were added into the testing wells respectively. Each ScFv was diluted five times in five gradients, and two parallel wells were loaded with each ScFv at each gradient. The plates were incubated at 37° C. for 1 h. The plates were washed three times with PBST, followed by addition of 100 μl anti-His-6 mouse monoclonal antibody (1:2000 dilution) per well and 1 h incubation at 37° C. The plates were washed three times with PBST, followed by addition of 100 μl goat anti-mouse-HRP (1:2500 dilution) per well and 1 h incubation at 37° C. The plates were washed six times with PBST, followed by addition of 100 μl OPD to develop under the protection from light. The reactions were terminated by adding 50 μl 2M H2SO4 to each well, and data were collected by microplate reader at 490 nm.\nOne positive control and three negative controls were performed in parallel. The positive control used rabbit anti-ER multi-clonal antibody serum in replacement of the ScFv re-natured sample and goat-anti-rabbit-HRP in replacement of goat-anti-mouse HRP."}, "[1]": {"tested_on": "Human breast tumor BCAP-37", "experiment": "Tumor growth inhibition in BCAP-37 tumor-bearing nude mice", "format": "in vivo, BALB/c-nu nude mice", "from_the_text": "49 female BALB/c-nu nude mice (provided by department of laboratory animal science, Peking University Health Science Center) were used in the studies.\n(§1) The tested animals were grouped into 7 groups with 7 nude mice in each group. The seven groups are the negative control group treated with human IgG antibody (purchased from Beijing Biosynthesis Biotechnology Co. Ltd.), the positive control group treated with herceptin (provided by Beijing Shenogen pharma group), the multi-clonal antibody test group treated with rabbit anti-ERα36 multi-clonal antibody (provided by Wang, Zhao-Yi group, Creighton University), and the monoclonal antibody test groups treated with human anti-ERα36 monoclonal ScFv1, ScFv3, ScFv4 and ScFv7 respectively.\n(§2) The test groups were administered with the same dose of rabbit anti-ERα36 multi-clonal antibody, human anti-ERα36 monoclonal ScFv1, ScFv3, ScFv4 and ScFv7 respectively (5 mg/kg, 100 μg/dose). The positive control group was administered with 5 mg/kg herceptin (100 μg/dose,), and the negative control group was administered with 5 mg/kg IgG antibody (100 μg/dose).\n(§3) Human breast tumor BCAP-37 (estrogen receptor positive, provided by department of pharmacology, Institute of Materia Medica, Chinese Academy of Medical Sciences) was implanted subcutaneously into the armpit of the right forelimb of each tested nude mouse. Diethylstilbestrol was administered by gavage with the dose of 7 μg/day for 9 consecutive days after the implantation. On day 10, the mice were grouped into 7 groups and administered with the corresponding drug via intravenous injection, at a dosing interval of 3-4 days, for 6 consecutive doses. Every 3-4 days, the tumor-bearing mice were weighed and their tumor sizes were measured. Parameters were calculated using the following equations:\nVolume of Tumor in animals of each group (VT): Vt=½×a×b^2, (Equation 1),\nwherein a and b represent the length and width of the tumor, respectively;\nwherein V0 is the volume of tumor before drug administration at the time of grouping, Vt is the volume of tumor at each measurement; the calculation method of V0 is the same as that of Vt;\nwherein TRTV is the arithmetic mean of RTV of the test groups, and CRTV is the arithmetic mean of RTV of the negative control group.\nThe tumor bearing mice in each group were terminated after 21 days of observations and drug administrations. The tumors were then excised from the animals, photographed and weighed on 1/10000 analytical balance. The average tumor weights and tumor growth inhibition rates were calculated:\nAll experimental data were shown in mean±standard deviation. Groups were compared using statistical t test."}, "[2]": {"experiment": "Body weight and mortality of tumor-bearing nude mice during drug administration", "format": "in vivo, BALB/c-nu nude mice", "conditions": "mean ± SD", "from_the_text": "as §1, §2\nas §3, with “equations: […]” for “equations:”"}, "[3]": {"conditions": "ScFv concentration 170.00 μg/ml"}, "[4]": {"conditions": "BCAP-37 nude mice, 5 mg/kg i.v. every 3-4 days, 6 doses, mean ± SD"}, "[5]": {"conditions": "BCAP-37 nude mice, 5 mg/kg i.v. every 3-4 days, Vt relative to V0, mean ± SD"}, "[6]": {"conditions": "5 mg/kg i.v. every 3-4 days, 6 doses"}, "[7]": {"conditions": "ScFv concentration 235.00 μg/ml"}}, "note": "Marks after values point to notes of the source that are not given here."}
{"molecule": "B1", "values": [{"measurement": "OD490 Well1", "setting": "ERα36; ScFv concentration 1.44 μg/ml", "result": 0.242}, {"measurement": "OD490 Well2", "setting": "ERα36; ScFv concentration 1.44 μg/ml", "result": 0.037}, {"measurement": "OD490 Well1", "setting": "ERα36; ScFv concentration 7.20 μg/ml", "result": 0.290}, {"measurement": "OD490 Well2", "setting": "ERα36; ScFv concentration 7.20 μg/ml", "result": 0.229}, {"measurement": "OD490 Well1", "setting": "ERα36; ScFv concentration 36.00 μg/ml", "result": 0.448}, {"measurement": "OD490 Well2", "setting": "ERα36; ScFv concentration 36.00 μg/ml", "result": 0.344}, {"measurement": "OD490 Well1", "setting": "ERα36; [3]", "result": 1.459}, {"measurement": "OD490 Well2", "setting": "ERα36; [3]", "result": 1.349}, {"measurement": "Tumor volumes, Day 4 after drug administration", "setting": "[1]; [4]", "result": "171.91 ± 73.68^b mm^3"}, {"measurement": "Tumor volumes, Day 7 after drug administration", "setting": "[1]; [4]", "result": "302.93 ± 100.01^b mm^3"}, {"measurement": "Tumor volumes, Day 11 after drug administration", "setting": "[1]; [4]", "result": "1442.70 ± 406.32^b mm^3"}, {"measurement": "Tumor volumes, Day 14 after drug administration", "setting": "[1]; [4]", "result": "1993.02 ± 405.84^b mm^3"}, {"measurement": "Tumor volumes, Day 18 after drug administration", "setting": "[1]; [4]", "result": "2859.65 ± 427.16^b mm^3"}, {"measurement": "Tumor volumes, Day 21 after drug administration", "setting": "[1]; [4]", "result": "3324.97 ± 460.89^b mm^3"}, {"measurement": "relative tumor volume (RTV), Day 4", "setting": "[1]; [5]", "result": "3.61 ± 2.03^b"}, {"measurement": "relative tumor volume (RTV), Day 7", "setting": "[1]; [5]", "result": "6.31 ± 2.88^b"}, {"measurement": "relative tumor volume (RTV), Day 11", "setting": "[1]; [5]", "result": "30.44 ± 14.49^b"}, {"measurement": "relative tumor volume (RTV), Day 14", "setting": "[1]; [5]", "result": "41.87 ± 16.82^b"}, {"measurement": "relative tumor volume (RTV), Day 18", "setting": "[1]; [5]", "result": "59.61 ± 20.46^b"}, {"measurement": "relative tumor volume (RTV), Day 21", "setting": "[1]; [5]", "result": "69.18 ± 22.85^b"}, {"measurement": "inhibition of tumor growth in tumor-bearing mice (in words)", "setting": "[1]; BCAP-37 nude mice, 5 mg/kg i.v., 6 doses", "result": "strongest inhibitory activities"}, {"measurement": "Tumor volumes, Before drug administration", "setting": "[1]; baseline, BCAP-37 nude mice, 5 mg/kg i.v. every 3-4 days, 6 doses, mean ± SD", "result": "50.51 ± 10.12", "unit": "mm^3"}, {"measurement": "tumor sizes at pathological examination (in words)", "setting": "[1]; excised tumors after 21 days", "result": "the smallest among the mono-clonal antibody groups"}, {"measurement": "Tumor weight", "setting": "[1]; excised tumors after 21 days, BCAP-37 nude mice, 5 mg/kg i.v., 6 doses, mean ± SD", "result": "2.738 ± 0.344", "unit": "g"}, {"measurement": "Tumor growth inhibition rate (%)", "setting": "[1]; from average tumor weights after 21 days vs negative control, 5 mg/kg i.v., 6 doses", "result": 59.76, "unit": "%"}, {"measurement": "Body weights of tumor-bearing nude mice, Day 4 after drug administration", "setting": "[2]; [6]", "result": "20.28 ± 0.54"}, {"measurement": "Body weights of tumor-bearing nude mice, Day 7 after drug administration", "setting": "[2]; [6]", "result": "20.75 ± 0.31"}, {"measurement": "Body weights of tumor-bearing nude mice, Day 11 after drug administration", "setting": "[2]; [6]", "result": "21.24 ± 0.55"}, {"measurement": "Body weights of tumor-bearing nude mice, Day 14 after drug administration", "setting": "[2]; [6]", "result": "22.04 ± 0.59"}, {"measurement": "Body weights of tumor-bearing nude mice, Day 18 after drug administration", "setting": "[2]; [6]", "result": "23.38 ± 0.46"}, {"measurement": "Body weights of tumor-bearing nude mice, Day 21 after drug administration", "setting": "[2]; [6]", "result": "23.62 ± 0.36"}, {"measurement": "body weight when grouped", "setting": "[2]; baseline at the time of grouping", "result": "19.94 ± 0.81"}, {"measurement": "Body weights of tumor-bearing nude mice, Before drug administration", "setting": "[2]; baseline, 5 mg/kg i.v. every 3-4 days, 6 doses", "result": "19.94 ± 0.81"}]}
{"molecule": "B2", "values": [{"measurement": "OD490 Well1", "setting": "ERα36; ScFv concentration 1.40 μg/ml", "result": 0.095}, {"measurement": "OD490 Well2", "setting": "ERα36; ScFv concentration 1.40 μg/ml", "result": 0.096}, {"measurement": "OD490 Well1", "setting": "ERα36; ScFv concentration 7.00 μg/ml", "result": 0.138}, {"measurement": "OD490 Well2", "setting": "ERα36; ScFv concentration 7.00 μg/ml", "result": 0.121}, {"measurement": "OD490 Well1", "setting": "ERα36; ScFv concentration 35.00 μg/ml", "result": 0.343}, {"measurement": "OD490 Well2", "setting": "ERα36; ScFv concentration 35.00 μg/ml", "result": 0.359}]}
{"molecule": "B3", "values": [{"measurement": "OD490 Well1", "setting": "ERα36; ScFv concentration 0.38 μg/ml", "result": 0.127}, {"measurement": "OD490 Well2", "setting": "ERα36; ScFv concentration 0.38 μg/ml", "result": 0.129}, {"measurement": "OD490 Well1", "setting": "ERα36; ScFv concentration 1.90 μg/ml", "result": 0.161}, {"measurement": "OD490 Well2", "setting": "ERα36; ScFv concentration 1.90 μg/ml", "result": 0.162}, {"measurement": "OD490 Well1", "setting": "ERα36; ScFv concentration 9.40 μg/ml", "result": 0.210}, {"measurement": "OD490 Well2", "setting": "ERα36; ScFv concentration 9.40 μg/ml", "result": 0.209}, {"measurement": "OD490 Well1", "setting": "ERα36; ScFv concentration 47.00 μg/ml", "result": 0.327}, {"measurement": "OD490 Well2", "setting": "ERα36; ScFv concentration 47.00 μg/ml", "result": 0.326}, {"measurement": "OD490 Well1", "setting": "ERα36; [7]", "result": 0.677}, {"measurement": "OD490 Well2", "setting": "ERα36; [7]", "result": 0.664}]}
